Data on eight molecules can be found in patent publication US9127038B2, “Kisspeptide-pentasaccharide conjugates” (Merck Sharp & Dohme Corp., priority 2011, dated 2015).

One data set is described as follows: in vivo. How it is done:
The pharmacokinetics of conjugate C8 were determined after administration of 40 nmol/kg IV in male and of 200 nmol/kg SC in female Sprague-Dawley rats.

The nature of data set [1]: In vitro stability in human serum (LC/MS/MS). The following applies: for half-life at 750 nM: human.
Protocol: Test compound is added to 1.5 mL human serum in a 96-wells deepwell plate in a final concentration of 750 nM. The compound is mixed and immediately thereafter a 100 μl sample is harvested in a 96-wells 2D-tuberack (T=0 sample). The 2 D-tubes are closed with rubber tube caps and the sample plate is stored at −20° CF. in the freezer. The deepwell plate is put into an incubator which was set at humidified (95%) atmosphere at 5-7% CO2 and 37° C. for an incubation period of maximum 240 h. During this incubation period, samples of 100 μl are collected on various time intervals, dependent on the test compound used; time points 0, 1, 2, 3, 6, 24, 48, 72 h in case of Kisspeptides and 0, 3, 6, 24, 48, 72, 168, 240 h in case of kisspeptide-pentasaccharide conjugates. Sample plates are put on ice in case of sampling and stored at −20° C. until analysis by LC/MS/MS.
For LC-MS/MS analysis, the compounds are separated over an XTerra RP8 column and using a gradient mobile phase of ammonium acetate buffer and acetonitrile at a fixed column temperature. MS/MS detection is done with a triple quadrupole mass spectrometer and employing negative ion electrospray ionization. The mass spectrometer is set up to achieve a known degree of in source fragmentation, where the initially formed multiply charged negative ions lose one or more SO3 molecules. The most abundant of these secondary ions are then subjected to a common MS/MS experiment in which a single SO3 loss is monitored. The Q1 and Q3 mass filter settings for this MS/MS experiment have commonly been determined in method development. […] Internal standardization is accomplished by adding a different conjugate of approximately the same size to the bioanalytical samples.
The rate of compound loss is expressed as a half-life (plasma t^1/2). The t^1/2 for the test compound can be determined by plotting the natural logarithm (In) of the measured concentrations against time and fitting the line through all data points. The gradient of this line is the first order rate constant (k) for substrate disappearance and is determined by regression analysis. The rate constant is converted to a half-life according to the following equation: In vitro half-life(t^1/2)=−ln 2/k
Another data set deals with T1, human KISS-receptor (Homo sapiens, UniProt Q969F8).
T1 construct: expressed in transfected cells; host or cells: CHO-k1 cells that also express mitochondrially targeted aequorin, Gα16 and an NFAT-luciferase reporter
T1 sequence (Q969F8 whole entry): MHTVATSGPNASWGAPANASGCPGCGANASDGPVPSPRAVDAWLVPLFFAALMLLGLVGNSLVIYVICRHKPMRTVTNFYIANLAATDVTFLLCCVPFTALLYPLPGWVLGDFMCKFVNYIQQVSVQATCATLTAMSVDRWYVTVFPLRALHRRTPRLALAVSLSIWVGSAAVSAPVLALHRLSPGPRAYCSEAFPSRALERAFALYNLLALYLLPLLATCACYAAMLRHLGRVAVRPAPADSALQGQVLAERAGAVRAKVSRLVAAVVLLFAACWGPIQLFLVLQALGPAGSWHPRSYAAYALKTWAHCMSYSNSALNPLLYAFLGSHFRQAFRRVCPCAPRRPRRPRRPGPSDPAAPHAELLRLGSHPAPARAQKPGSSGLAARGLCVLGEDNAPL
Nature of the data set: NFAT-regulated luciferase reporter gene assay in CHO-k1 cells, agonist activity. Type of data set: cell-based. Background: A reporter such as luciferase makes a cellular process visible.

The conditions of data set [2]: cited from earlier work.
The conditions of data set [3]: after clomiphene citrate treatment; cited from earlier work.
The mark [4] stands for this setting: female, Sprague-Dawley, rat, plasma, sc, 0.2 umol/kg.
Where [5] appears, read: female, Sprague-Dawley, rat, plasma, sc, 200 nmol/kg.
Setting [6] is: female, Sprague-Dawley, rat, plasma, sc, 0.6 umol/kg.
Setting [7] is: male, Sprague-Dawley, rat, plasma, iv, 40 nmol/kg.
[8] abbreviates: absence of human serum, read-out: pEC50 (converted).
The mark [9] stands for this setting: presence of 20% human serum, read-out: pEC50 serum (converted).

Counter-ions that a name gives are not always drawn. Like-named read-outs stand apart in the source and are kept apart here. Square brackets hold non-standard residues; d marks the D form. Peptide text beside a SMILES is read from it. Arg(Me) = CNC(=N)NCCC[C@H](N)C(=O)O; azaGly = NNC(=O)O

Protocol for human KISS-receptor: CHO-k1 cells were used that expressed the mitochondrially targeted aequorine and Gα16 (from Euroscreen, Brussels, Belgium), a Nuclear Factor of Activated T-cells-responsive element (NFAT) under the control of a promoter directing the expression of a firefly luciferase reporter gene (pNFAT-TALuc obtained from Clontech, Mountain View, Calif.), and the human GPR54-R Hygro(+)-hGPR54WT c4; MSD). These cells were cultured in Dulbecco's Modified Eagle Medium: Nutrient Mixture F-12 (DMEM/F12) (Invitrogen, Carlsbad, Calif.), supplemented with 10% (vol/vol) filtered bovine serum (Hyclone, Thermo Fisher Scientific, Waltham, Mass.), 100 U/ml penicillin G, 100 μg/ml streptomycin, 400 μg/ml Geneticin and 400 μg/ml Hygromycin (Invitrogen). […] Kisspeptin-10 was used as a standard. […] When the conjugates were tested in the presence of a final percentage of 20% human serum, 10 μl assay medium containing 60% human serum (Sigma-Aldrich, #H4522) was added to the wells. In the absence of human serum, 10 μl of assay medium was added. Cells were harvested and diluted to a concentration of 7.5E5 cells/ml in assay medium without 0.1% BSA. 10 μl of cell solution was added to the compound wells. After incubation for 4 hours in a humidified atmosphere at 5% CO2 and 37° C., the plate was left at room temperature for 30 minutes. Subsequently, 15 μl of Steadylite™ solution (PerkinElmer, Boston, Mass.) was added and the cells, protected from light, were allowed to lyse for 30 min at room temperature. Luminescence, indicated as relative luminescence units (RLU), was measured on an Envision Multilabel reader (PerkinElmer).

As usually defined, the AUC(0-inf) is the area under the concentration-time curve extrapolated to infinity. The term Cmax denotes the highest concentration seen after dosing. In general, Tmax refers to the time from dosing to the highest level. Usually bioavailability stands for the share of a dose that reaches the circulation, judged against a reference dose that is usually intravenous. A high value points to good availability. The Vd is the apparent volume that relates the amount in the body to the concentration in plasma or blood. High values mean extensive tissue distribution, low ones confinement near the circulation. For orientation: clearance means a measure of how efficiently the substance is removed, as volume per time. A high value points to a high capacity for elimination. One may read the half-life as how long it takes for the measured level to halve. A high value points to slow loss. As for `CNC(=N)NCCC[C@H](NC(=O)[C@H](CC(C)C)NC(=O)NNC(=O)[C@H](Cc1ccccc1)NC(=O)[C@@H](NC(=O)[C@H](CC(N)=O)NC(=O)[C@H](Cc1c[nH]c2ccccc12)NC(=O)[C@H](CC(N)=O)NC(=O)[C@@H](Cc1ccc(O)cc1)NC(=O)CCCCn1cc(CCC(=O)NCCOCCOCCOCCO[C@H]2[C@H](OC)[C@@H](OC)[C@@H](O[C@H]3[C@H](OC)[C@@H](OC)[C@H](O[C@H]4[C@H](OS(=O)(=O)O)[C@@H](OS(=O)(=O)O)[C@@H](O[C@H]5[C@H](OC)[C@@H](OC)[C@H](O[C@H]6[C@H](OS(=O)(=O)O)[C@@H](OS(=O)(=O)O)[C@@H](OC)O[C@@H]6COS(=O)(=O)O)O[C@H]5C(=O)O)O[C@@H]4COS(=O)(=O)O)O[C@@H]3C(=O)O)O[C@@H]2COS(=O)(=O)O)nn1)C(C)O)C(=O)N[C@@H](Cc1ccccc1)C(N)=O` (some centres unmarked) [Conjugate C8], in the data set “in vivo” (40 nmol/kg IV, male rats), the “AUCN(0-∞) IV” value came to 60.4 nM·kg·h/µg. In “in vivo” (200 nmol/kg SC, female rats), the “AUCN(0-∞) SC” value amounted to 56.5 nM·kg·h/µg and the F stood at 94%. In the data set “in vivo” (setting [4]), this molecule displayed an AUC(0-inf) of 38.7 µM·h, a Cmax of 2310 nM and a level at time molar at 24 h of 490 nM. Further, in the data set “in vivo” (female, Sprague-Dawley, rat, plasma, sc, 0.2 umol/kg, Tmax, SC 0.2 μmol/kg, female rats), the time of peak concentration (Tmax) came to 2.7 h. In “in vivo” (setting [5]), this molecule yielded a Cmax of 2310 nM and a bioavailability of 93.5%. Moreover, the time to peak (Tmax) in “in vivo” (female, Sprague-Dawley, rat, plasma, sc, 200 nmol/kg, Tmax, 200 nmol/kg SC, female rats) is 2.7 h. Further, in the data set “in vivo” (female, Sprague-Dawley, rat, plasma, sc, 200 nmol/kg, tmax, following subcutaneous administration), the Tmax was 2.7 to 3.3 h. In “in vivo” (setting [6]), this molecule came in with an area under the curve AUC(0-inf) of 90.5 µM·h, a Cmax of 5180 nM and a level at time molar at 24 h of 1100 nM. Further, in “in vivo” (female, Sprague-Dawley, rat, plasma, sc, 0.6 umol/kg, Tmax, SC 0.6 μmol/kg, female rats), the Tmax is 1.7 h. In “in vivo” (setting [7]), the volume of distribution (Vd) stood at 0.067 L/kg, the clearance amounted to 4.8 mL/h/kg and the half-life was 11.5 h. In addition, the half-life at 750 nM in data set [1] was > 240 h. Moreover, the EC50 on human KISS-receptor (pEC50, absence of human serum) is 0.158 nM. The EC50 on human KISS-receptor (pEC50 serum, presence of 20% human serum) is 7.24 nM.

`CNC(=N)NCCC[C@H](NC(=O)[C@H](CC(C)C)NC(=O)CNC(=O)[C@H](Cc1ccccc1)NC(=O)[C@@H](NC(=O)[C@H](CC(N)=O)NC(=O)[C@@H]1C[C@@H](O)CN1C(=O)[C@H](CC(N)=O)NC(=O)[C@H](Cc1ccc(O)cc1)NC(=O)CCOCCOCCOCCOCCn1cc(CCC(=O)NCCOCCOCCOCCO[C@H]2[C@H](OC)[C@@H](OC)[C@@H](O[C@H]3[C@H](OC)[C@@H](OC)[C@H](O[C@H]4[C@H](OS(=O)(=O)O)[C@@H](OS(=O)(=O)O)[C@@H](O[C@H]5[C@H](OC)[C@@H](OC)[C@H](O[C@H]6[C@H](OC)[C@@H](OS(=O)(=O)O)[C@@H](OC)O[C@@H]6COS(=O)(=O)O)O[C@H]5C(=O)O)O[C@@H]4COS(=O)(=O)O)O[C@@H]3C(=O)O)O[C@@H]2COS(=O)(=O)O)nn1)[C@@H](C)O)C(=O)N[C@@H](Cc1ccccc1)C(N)=O` [Conjugate C25] had a half-life at 750 nM in data set [1] of 188 h. Further, the EC50 was 0.372 nM at human KISS-receptor (setting [8]) and 1.02 nM on human KISS-receptor (setting [9]).

As to `CNC(=N)NCCC[C@H](NC(=O)[C@H](CC(C)C)NC(=O)NNC(=O)[C@H](Cc1ccccc1)NC(=O)[C@@H](NC(=O)[C@H](CC(N)=O)NC(=O)[C@@H]1C[C@@H](O)CN1C(=O)[C@@H](Cc1ccc(O)cc1)NC(=O)CCOCCOCCOCCOCCn1cc(CCC(=O)NCCOCCOCCOCCO[C@H]2[C@H](OC)[C@@H](OC)[C@@H](O[C@H]3[C@H](OC)[C@@H](OC)[C@H](O[C@H]4[C@H](OS(=O)(=O)O)[C@@H](OS(=O)(=O)O)[C@@H](O[C@H]5[C@H](OC)[C@@H](OC)[C@H](O[C@H]6[C@H](OC)[C@@H](OS(=O)(=O)O)[C@@H](OC)O[C@@H]6COS(=O)(=O)O)O[C@H]5C(=O)O)O[C@@H]4COS(=O)(=O)O)O[C@@H]3C(=O)O)O[C@@H]2COS(=O)(=O)O)nn1)[C@@H](C)O)C(=O)N[C@@H](Cc1c[nH]c2ccccc12)C(N)=O` [Conjugate C34], the half-life at 750 nM in data set [1] is 138 h. For the same molecule, the EC50 at human KISS-receptor (setting [8]) is 0.0407 nM; at human KISS-receptor (setting [9]), 0.141 nM.

Take `CNC(=N)NCCC[C@H](NC(=O)[C@H](CC(C)C)NC(=O)NNC(=O)[C@H](Cc1ccccc1)NC(=O)[C@@H](NC(=O)[C@H](CC(N)=O)NC(=O)[C@@H]1C[C@@H](O)CN1C(=O)[C@@H](Cc1ccc(O)cc1)NC(=O)CCOCCOCCOCCOCCn1cc(CCC(=O)NCCOCCOCCOCCO[C@H]2[C@H](OC)[C@@H](OC)[C@@H](O[C@H]3[C@H](OC)[C@@H](OC)[C@H](O[C@H]4[C@H](OS(=O)(=O)O)[C@@H](OS(=O)(=O)O)[C@@H](O[C@H]5[C@H](OC)[C@@H](OC)[C@H](O[C@H]6[C@H](OS(=O)(=O)O)[C@@H](OS(=O)(=O)O)[C@@H](OC)O[C@@H]6COS(=O)(=O)O)O[C@H]5C(=O)O)O[C@@H]4COS(=O)(=O)O)O[C@@H]3C(=O)O)O[C@@H]2COS(=O)(=O)O)nn1)[C@@H](C)O)C(=O)N[C@@H](Cc1c[nH]c2ccccc12)C(N)=O` [Conjugate C35]: the half-life at 750 nM in data set [1] was > 240 h. In addition, the EC50 on human KISS-receptor (setting [8]) was 0.0427 nM; at human KISS-receptor (setting [9]), 1.38 nM.

In data set [1], `CO[C@H]1O[C@H](COS(=O)(=O)O)[C@@H](O[C@@H]2O[C@@H](C(=O)O)[C@@H](O[C@H]3O[C@H](COS(=O)(=O)O)[C@@H](O[C@@H]4O[C@H](C(=O)O)[C@@H](O[C@H]5O[C@H](COS(=O)(=O)O)[C@@H](OCCOCCOCCOCCNC(=O)CCc6cn(CCCCC(=O)N[C@@H](Cc7ccc(O)cc7)C(=O)N[C@@H](CC(N)=O)C(=O)N[C@@H](Cc7c[nH]c8ccccc78)C(=O)N[C@@H](CC(N)=O)C(=O)N[C@@H](CO)C(=O)N[C@@H](Cc7ccccc7)C(=O)NCC(=O)N[C@@H](CC(C)C)C(=O)N[C@@H](CCCNC(=N)N)C(=O)N[C@@H](Cc7ccccc7)C(N)=O)nn6)[C@H](OC)[C@H]5OC)[C@H](OC)[C@H]4OC)[C@H](OS(=O)(=O)O)[C@H]3OS(=O)(=O)O)[C@H](OC)[C@H]2OC)[C@H](OS(=O)(=O)O)[C@H]1OS(=O)(=O)O` [Conjugate C42, reference compound] gave a half-life at 750 nM of 121 h. In addition, the EC50 on human KISS-receptor (setting [8]) was 1.58 nM; on human KISS-receptor (setting [9]), 31.6 nM. Besides, the “potency (in words)” value at human KISS-receptor (in words) is recorded as “not sufficiently potent”.

The molecule `CNC(=N)NCCC[C@H](NC(=O)[C@H](CC(C)C)NC(=O)NNC(=O)[C@H](Cc1ccccc1)NC(=O)[C@@H](NC(=O)[C@H](CC(N)=O)NC(=O)[C@H](Cc1c[nH]c2ccccc12)NC(=O)[C@H](CC(N)=O)NC(=O)[C@H](N)Cc1ccc(O)cc1)[C@@H](C)O)C(=O)N[C@@H](Cc1ccccc1)C(N)=O` [Conjugate P29, reference compound] (H-[dY]NWNTF[azaGly]L[Arg(Me)]F-NH2) showed a half-life at 750 nM in data set [1] of 5.4 h. The “stability (in words)” value in data set [1] was “not sufficiently stable”. Moreover, the EC50 was 0.1 nM on human KISS-receptor (setting [8]) and 0.0501 nM on human KISS-receptor (setting [9]).

Regarding `CC(C)C[C@H](NC(=O)CNC(=O)[C@H](Cc1ccccc1)NC(=O)[C@H](CO)NC(=O)[C@H](CC(N)=O)NC(=O)[C@H](Cc1c[nH]c2ccccc12)NC(=O)[C@H](CC(N)=O)NC(=O)[C@@H](N)Cc1ccc(O)cc1)C(=O)N[C@@H](CCCNC(=N)N)C(=O)N[C@@H](Cc1ccccc1)C(N)=O` [Kiss-10, reference compound], in data set [2], the “half-life in human plasma” value was ~0.167 h. Further, the “stability (in words)” value in data set [1] is “not sufficiently stable”. Also, the EC50 on human KISS-receptor (setting [8]) and at human KISS-receptor (setting [9]) was 1 nM in each case.

With `CCN(CC)CCOc1ccc(C(=C(Cl)c2ccccc2)c2ccccc2)cc1` [clomiphene citrate], in data set [3], the ovulation rates is 60%-90% and the pregnancy rates was 20%-40%.
